The record followed here is US11413334B2, “Lysin polypeptides active against Gram-negative bacteria” (CONTRAFECT CORPORATION, priority 2015, dated 2022).

The subject of one experiment is PAO1 cells. Nature of the experiment: Killing assay of GN4-derived peptides in Tris-HCl buffer. The settings on record: FIG. 6; compared with parent GN4 fragment.
Experiment [1] has as its system P. aeruginosa strain PAO1. The experiment in a line: Viability (CFU) assay of GN lysins in Tris-HCl buffer. As to conditions: for antibacterial activity compared with EDTA and PMB / antibacterial activity compared with HuLYS or novobiocin: lysin 25 mcg/ml, 1 hour, 37° C., 20 mM Tris-HCl pH 7.2, FIG. 4; for antibacterial activity compared with EDTA and PMB: EDTA 1 mM, PMB 25 mcg/ml; for antibacterial activity compared with HuLYS or novobiocin: HuLYZ 25 mcg/ml, novobiocin 5 mcg/ml.

Experiment [2] relates to P. aeruginosa strain PAO1. It is filed as cell-based, Pseudomonas aeruginosa. As to conditions: E. coli clones of five Micavibrio aeruginosavorus hydrolases screened.

“Also recorded” adds a separate entry of the source.

Regarding “FGN4-2: FGN4-1 with the 11 C-terminal residues removed, 31 amino acids (NKGDYQGAADQFPRWVNAGGKRLDGLVKRRA; Pseudomonas phage PAJU2)”, the “effect of the sequence modification on activity of the parent fragment” value with PAO1 cells is “did reduce activity”.

In the case of “FGN4-4: FGN4-1 with a single C-terminal cysteine added (NKGDYQGAADQFPRWVNAGGKRLDGLVKRRAAERALFLEPLSC; artificially-created modified fragment of GN4 (SEQ ID NO 3))”, the “effect of the sequence modification on activity of the parent fragment” value in the experiment on PAO1 cells is “enhanced the activity of the FGN4-1”.

B1: GN37: 126 amino acid lysin polypeptide, peptidase M15 from Micavibrio aeruginosavorus (protein, listed as Micavibrio aeruginosavorus)
chain: MTYTLSKRSLDNLKGVHPDLVAVVHRAIQLTPVDFAVIEGLRSVSRQKELVAAGASKTMNSRHLTGHAVDLAAYVNGIRWDWPLYDAIAVAVKAAAKELGVAIVWGGDWTTFKDGPHFELDRSKYR
For B1, the “decrease in bacterial viability” value in experiment [1] (after only 1 hour of treatment) is recorded as over 3 log. Further, in experiment [1], the “antibacterial activity compared with EDTA and PMB” value is reported as “equivalent antibacterial activity; also recorded: stronger or equivalent antibacterial activity”; the “antibacterial activity compared with HuLYS or novobiocin” value is reported as “greater antibacterial activity”. Also, the “clearing zone on agar overlay plates” value in experiment [2] is on record as “yielded a clearing zone (halo)”.

B2: GN14: 189 amino acid lysin polypeptide, putative endolysin of Pseudomonas phage Lu11 (protein)
chain: MNNELPWVAEARKYIGLREDTSKTSHNPKLLAMLDRMGEFSNESRAWWHDDETPWCGLFVGYCLGVAGRYVVREWYRARAWEAPQLTKLDRPAYGALVTFTRSGGGHVGFIVGKDARGNLMVLGGNQSNAVSIAPFAVSRVTGYFWPSFWRNKTAVKSVPFEERYSLPLLKSNGELSTNEA
modifications: Pseudomonas phage Lu11
As for B2, in experiment [1], the “antibacterial activity compared with EDTA and PMB” value is given as “equivalent antibacterial activity; also recorded: stronger or equivalent antibacterial activity”; the “antibacterial activity compared with HuLYS or novobiocin” value is recorded as “greater antibacterial activity”.

B3: GN2: 147 amino acid lysin polypeptide, lysozyme class, from marine metagenome (protein)
chain: MKISLEGLSLIKKFEGCKLEAYKCSAGVWTIGYGHTAGVKEGDVCTQEEAEKLLRGDIFKFEEYVQDSVKVDLDQSQFDALVAWTFNLGPGNLRSSTMLKKLNNGEYESVPFEMRRWNKAGGKTLDGLIRRRQAESLLFESKEWHQV
modifications: hypothetical protein GOS_817346 [marine metagenome] (GenBank EDG23390.1)
B3: the “antibacterial activity compared with HuLYS or novobiocin” value in experiment [1] is “greater antibacterial activity”.

B4: GN4: 144 amino acid lysin polypeptide, putative endolysin of Pseudomonas phage PAJU2 (protein)
chain: MRTSQRGIDLIKSFEGLRLSAYQDSVGVWTIGYGTTRGVTRYMTITVEQAERMLSNDIQRFEPELDRLAKVPLNQNQWDALMSFVYNLGAANLASSTLLKLLNKGDYQGAADQFPRWVNAGGKRLDGLVKRRAAERALFLEPLS
modifications: Pseudomonas phage PAJU2
Consider B4, for which, in experiment [1], the “antibacterial activity compared with EDTA and PMB” value was “equivalent antibacterial activity; also recorded: stronger or equivalent antibacterial activity”; the “antibacterial activity compared with HuLYS or novobiocin” value is “greater antibacterial activity”.

B5: GN43: 439 amino acid lysin polypeptide, peptidase M23 of Pseudomonas (protein, listed as Pseudomonas sp.)
chain: MKRTTLNLELESNTDRLLQEKDDLLPQSVTNSSDEGTPFAQVEGASDDNTAEQDSDKPGASVADADTKPVDPEWKTITVASGDTLSTVFTKAGLSTSAMHDMLTSSKDAKRFTHLKVGQEVKLKLDPKGELQALRVKQSELETIGLDKTDKGYSFKREKAQIDLHTAYAHGRITSSLFVAGRNAGLPYNLVTSLSNIFGYDIDFALDLREGDEFDVIYEQHKVNGKQVATGNILAARFVNRGKTYTAVRYTNKQGNTSYYRADGSSMRKAFIRTPVDFARISSRFSLGRRHPILNKIRAHKGVDYAAPIGTPIKATGDGKILEAGRKGGYGNAVVIQHGQRYRTIYGHMSRFAKGIRAGTSVKQGQIIGYVGMTGLATGPHLHYEFQINGRHVDPLSAKLPMADPLGGADRKRFMAQTQPMIARMDQEKKTLLALNKQR
As to B5, the “antibacterial activity compared with HuLYS or novobiocin” value in experiment [1] is recorded as “greater antibacterial activity”.
